Experiments:
[1] = target: T1, HIV-1 integrase wild-type (IN1-288) (Human immunodeficiency virus 1, UniProt P12497 P12497:1148-1435); test: inhibition; both activities 0.120; row misprinted T30745
[2] = target: T2, HIV-1 reverse transcriptase (Human immunodeficiency virus 1, UniProt P03366;P03366 P03366:600-1159,P03366:600-1039); test: inhibition
[3] = target: T2, HIV-1 reverse transcriptase; test: inhibition; printed as ID50
[4] = target: T1, HIV-1 integrase wild-type (IN1-288); test: inhibition
[5] = target: T1, HIV-1 integrase wild-type (IN1-288); test: inhibition; both activities 0.125
[6] = target: T3, HIV-1 integrase IN1-212 (C-terminal deletion) (HIV-1, UniProt P04585 P04585:1148-1359); test: inhibition; disintegration assay, Mn2+, 30 C; conditions: intramolecular G4
T3 chain: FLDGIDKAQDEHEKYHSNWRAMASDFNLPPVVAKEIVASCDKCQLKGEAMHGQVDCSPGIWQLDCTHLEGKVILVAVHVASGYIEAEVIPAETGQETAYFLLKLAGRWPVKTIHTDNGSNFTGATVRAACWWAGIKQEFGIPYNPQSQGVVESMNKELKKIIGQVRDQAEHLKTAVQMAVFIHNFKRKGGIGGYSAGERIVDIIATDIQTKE

[7] = target: T4, HIV-1 integrase wild-type (IN1-288) (Human immunodeficiency virus 1, UniProt P12497 P12497:1148-1435); test: inhibition; both activities 0.120; conditions: intermolecular G4
[8] = target: T1, HIV-1 integrase wild-type (IN1-288); test: inhibition; 3'-process column; strand transfer column 0.055; row misprinted T30745
[9] = target: T4, HIV-1 integrase wild-type (IN1-288); test: inhibition; 3'-process column; strand transfer column 0.060 (headings appear swapped); conditions: intermolecular G4
[10] = target: T1, HIV-1 integrase wild-type (IN1-288); test: inhibition; 3'-process column; strand transfer column 0.150

GCGGGGCTCCATGGGGGTCG (structured_DNA, pPT (PS at first and last linkages)) [T30754]
IC50 [1]: 120 nM

GGGTGGGTGGGTGGGTGG (ssDNA, PS all linkages, 3'-amine) [1174]
Ki [2]: 15 nM | IC50 [3]: 15.4 nM

GTGGTGGGTGGGTGGGT (structured_DNA, pPT; N13 = 5-iodo dU [n positions 13 = modified dU]) [T30578]
IC50 [4]: 50 nM

TGGGAGGTGGGTCTG (structured_DNA, pPT (PS at first and last linkages)) [T30748]
IC50 [5]: 125 nM

GTGGTGGGTGGGGTGGT (structured_DNA, pPT (PS at first and last linkages)) [T30698]
IC50 [4]: 16 nM

GTTGGGGGTTGTTGGTGGGGTGGTGG (ssDNA, PS all linkages, 3'-amine) [I100-12]
Ki [2]: 5 nM | IC50 [3]: 15 nM

GTGGTGGGTGGGTTGGT (structured_DNA, pPT (PS at first and last linkages)) [T30678]
IC50 [4]: 120 nM

GTGGTGGGTGGGTGGGT (structured_DNA, PS at the terminal 5' and 3' internucleoside linkages) [T30177 (AR177)]
IC50 [6]: 600 nM

GTGGTGGGTGGGTGGGTGGTGGGTGGTGGTTGTGGGTGGGTGGTG (ssDNA, PS all linkages, 3'-amine) [I100-21]
Ki [2]: 1 nM | IC50 [3]: 4 nM

GTGGTGGGTGGGTGGGTGGTGGGTGGTGGTTGTGGGTGGGTGGTG (ssDNA, phosphodiester, 3'-amine) [I100-07]
Ki [2]: 137 nM | IC50 [3]: 2500 nM

GUGGUGGGUGGGUGGGU (ssRNA, pPT (PS at first and last linkages), RNA sugars) [T30661]
IC50 [4]: 84 nM

GTGGGTGGTGGGGTGGT (structured_DNA, pPT (PS at first and last linkages)) [T30699]
IC50 [4]: 50 nM

GTGGTGGGTGGGTGGGT (structured_DNA, pPT; N5,N13 = C-5 propynyl dU [n positions 5,13 = modified dU]) [T30702]
IC50 [4]: 30 nM

GTGGTGGGTGGGTGGGT (structured_DNA, pPT; capital T = C-5 propynyl dU (position 5)) [T30700]
IC50 [4]: 40 nM

GTGGTGGGTGGGTGGGT (structured_DNA, pPT; N5 = 5-iodo dU [n positions 5 = modified dU]) [T30576]
IC50 [4]: 50 nM

GTGGGTGGTGGGTGGGT (structured_DNA, pPT (PS at first and last linkages)) [T30696]
IC50 [4]: 13 nM

GTTGGGGGTTGTTGGTGGGGTGGTGG (ssDNA, phosphodiester, 3'-propanolamine) [I100-00]
Ki [2]: 370 nM | IC50 [3]: 5000 nM

TGGGAGGTGGGTCTG (structured_DNA, all phosphodiester, DMT at 3' end) [T30747B]
IC50 [7]: 120 nM

GATCCATGTCAGTGACAC (ssDNA, PS all linkages, 3'-amine) [1232 random GATC]
Ki [2]: 560 nM | IC50 [3]: 45 nM

GTGGCGGGTGGGTGGGT (structured_DNA, pPT) [T30743]
IC50 [8]: 60 nM

GTGGTTGGTGTGGTTGGT (structured_DNA, pPT (PS at first and last linkages)) [T30674]
IC50 [4]: 610 nM

GTGGTGGGGTGGTGGGT (structured_DNA, pPT (PS at first and last linkages)) [T30697]
IC50 [4]: 13 nM

GCGGGGCTCCATGGGGGTCG (structured_DNA, PS pattern g*c*gggc*t*c*c*a*tggggg*t*c*g (as printed in table footnote)) [S935833]
IC50 [9]: 45 nM

GTGGCGGGCGGGCGGGT (structured_DNA, pPT) [T30746]
IC50 [10]: 150 nM

GTGGTTGGTGTGGTTGG (structured_DNA, pPT (PS at first and last linkages)) [T30673]
IC50 [4]: 600 nM

GTGGTGGGTGGGTGGGT (structured_DNA, pPT; N13 = C-5 propynyl dU [n positions 13 = modified dU]) [T30701]
IC50 [4]: 30 nM

GTGGTGGGCGGGTGGGT (structured_DNA, pPT) [T30744]
IC50 [4]: 60 nM

GTGGTGGGTGGGTGGGT (structured_DNA, pPT; N5,N9,N13 = 5-bromo dU [n positions 5,9,13 = modified dU]) [T30571]
IC50 [4]: 50 nM

From US6355785 (Aronex Pharmaceuticals, Inc.)
